Experimental data published in US20110076347A1 (BEN GURION UNIVERSITY OF THE NEGEV RESEARCH AND DEVELOPMENT …, published 2011).

T1: human recombinant calbindin D28k (human, UniProt P05937 1-261, limits assumed)
T1 sequence (looked up): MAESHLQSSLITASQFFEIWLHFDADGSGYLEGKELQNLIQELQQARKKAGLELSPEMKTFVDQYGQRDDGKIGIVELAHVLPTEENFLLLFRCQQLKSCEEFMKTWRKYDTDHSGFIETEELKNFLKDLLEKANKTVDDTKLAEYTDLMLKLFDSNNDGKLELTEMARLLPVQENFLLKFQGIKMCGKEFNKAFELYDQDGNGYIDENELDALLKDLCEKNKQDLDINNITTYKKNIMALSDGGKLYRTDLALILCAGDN

B1: Peptide 10 (Lys-Glu-Lys) (peptide)
peptide: KEK
B2: Peptide 8 (Ile-Ala-Ala-Ala-Tyr-Pro) (peptide)
peptide: IAAAYP
B3: Peptide 9 (Ile-Lys-Glu-Lys-Tyr) (peptide)
peptide: IKEKY
B4: Peptide 6 (Ile-Ala-Glu-Ala-Tyr-Pro) (peptide)
peptide: IAEAYP
B5: Peptide 3 (Ile-Lys-Glu-Ala-Tyr-Pro) (peptide)
peptide: IKEAYP
B6: Peptide 5 (Ser-Tyr-Glu-His-Lys-Pro) (peptide)
peptide: SYEHYP
B7: Peptide 7 (Lys-His-Ile-Lys-Pro-Ser) (peptide)
peptide: KHIKPS
B8: Peptide 4 (Ile-Ala-Glu-Lys-Tyr-Pro) (peptide)
peptide: IAEKYP
B9: Peptide 2 (Ile-Lys-Ala-Lys-Tyr-Pro) (peptide)
peptide: IKAKYP
B10: Peptide 1 (Ile-Lys-Glu-Lys-Tyr-Pro) (peptide)
peptide: IKEKYP

target: T1, human recombinant calbindin D28k; assay: cell-based or functional assay

How did the “% Inhibition of Calbindin Activation” value turn out when B1 was run?
Its value is 0%.

B2 was tested. Which “% Inhibition of Calbindin Activation” value did it give?
Its value is 0%.

B3 was tested. Which “% Inhibition of Calbindin Activation” value did it give?
The value was 0%.

B4 was tested. Which “% Inhibition of Calbindin Activation” value did it give?
The value was 0%.

B5 was tested. Which “% Inhibition of Calbindin Activation” value did it give?
Its value is 100%.

For B6, which “% Inhibition of Calbindin Activation” value is on record?
The value was 56%.

How did the “% Inhibition of Calbindin Activation” value turn out when B7 was run?
Its value is 56%.

B8 was tested. Which “% Inhibition of Calbindin Activation” value did it give?
The value was 89%.

B9 was tested. Which “% Inhibition of Calbindin Activation” value did it give?
The value was 100%.

Which “% Inhibition of Calbindin Activation” value does the source give for B10 here?
Its value is 78%.

target: human brain inositol monophosphatase (IMPase), in postmortem crude homogenate (human) (UniProt P29218); assay: cell-based or functional assay
Sequence (P29218 whole entry): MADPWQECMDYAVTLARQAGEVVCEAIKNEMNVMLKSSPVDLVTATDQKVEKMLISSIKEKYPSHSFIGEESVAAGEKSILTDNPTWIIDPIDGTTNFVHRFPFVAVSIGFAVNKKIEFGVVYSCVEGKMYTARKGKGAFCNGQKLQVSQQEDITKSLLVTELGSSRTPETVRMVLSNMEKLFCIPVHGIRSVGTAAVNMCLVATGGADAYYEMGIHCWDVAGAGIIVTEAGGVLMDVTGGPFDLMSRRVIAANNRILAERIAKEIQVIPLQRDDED

“human recombinant calbindin D28k (from UniProt P05937 1-261)” was tested. Which human brain IMPase activity did it give?
Its human brain IMPase activity is 3 fold.
